Experimental data: the supplement of paper PMC10567573

B1: STK38L (parent)
chain: NWKETLVFPPEVPISEKAKDLILR
B2: CD69 (parent)
chain: FVAENSSLHPESGQENDATSPHFS

Variants of: B1
Experiment: protein stability index of a GFP-peptide fusion (GPS, HEK-293T) (PSI 1-6); higher = more stable
Settings: c terminus: a fixed tail appended
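Further: lentivirally expressed fusions sorted by FACS into six bins by GFP to DsRed ratio, PSI derived from sequencing read proportions per bin multiplied by bin number.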

Row | Variant | protein stability index
1 | NWKETLVFPPEVPQSEKAKDLILR [I14Q] | 3.23
2 | NWKETLVFPPEVPRSEKAKDLILR [I14R] | 3.44
3 | NWKETLVFPPEVPESEKAKDLILR [I14E] | 3.53
4 | NWKETLVFPPEVPKSEKAKDLILR [I14K] | 4.07
5 | NWKETLVFPPEVPMSEKAKDLILR [I14M] | 3.77

Variants of: B2
Experiment: as above
Settings: c terminus: a fixed tail appended

Row | Variant | protein stability index
6 | TVAENSSLHPESGQENDATSPHFS [F1T] | 5.58
7 | LVAENSSLHPESGQENDATSPHFS [F1L] | 5.13
8 | SVAENSSLHPESGQENDATSPHFS [F1S] | 5.4
9 | NVAENSSLHPESGQENDATSPHFS [F1N] | 5.39
10 | EVAENSSLHPESGQENDATSPHFS [F1E] | 5.62
11 | YVAENSSLHPESGQENDATSPHFS [F1Y] | 3.64
12 | AVAENSSLHPESGQENDATSPHFS [F1A] | 4.81
13 | WVAENSSLHPESGQENDATSPHFS [F1W] | 5.2
14 | GVAENSSLHPESGQENDATSPHFS [F1G] | 5.41
15 | CVAENSSLHPESGQENDATSPHFS [F1C] | 5.02
16 | KVAENSSLHPESGQENDATSPHFS [F1K] | 5.78
17 | RVAENSSLHPESGQENDATSPHFS [F1R] | 5.12
18 | PVAENSSLHPESGQENDATSPHFS [F1P] | 5.51
19 | VVAENSSLHPESGQENDATSPHFS [F1V] | 4.96
20 | MVAENSSLHPESGQENDATSPHFS [F1M] | 5.49
21 | IVAENSSLHPESGQENDATSPHFS [F1I] | 5.04
22 | QVAENSSLHPESGQENDATSPHFS [F1Q] | 5.65
23 | HVAENSSLHPESGQENDATSPHFS [F1H] | 4.98
24 | DVAENSSLHPESGQENDATSPHFS [F1D] | 5.78
25 | FVQENSSLHPESGQENDATSPHFS [A3Q] | 3.27
26 | FVRENSSLHPESGQENDATSPHFS [A3R] | 2.88
27 | FVYENSSLHPESGQENDATSPHFS [A3Y] | 3.02
28 | FVFENSSLHPESGQENDATSPHFS [A3F] | 3.02

Row | Variant | protein stability index
29 | FVSENSSLHPESGQENDATSPHFS [A3S] | 2.56
30 | FVKENSSLHPESGQENDATSPHFS [A3K] | 2.95
31 | FVEENSSLHPESGQENDATSPHFS [A3E] | 3.57
32 | FVLENSSLHPESGQENDATSPHFS [A3L] | 2.95
33 | FVPENSSLHPESGQENDATSPHFS [A3P] | 2.41
34 | FVVENSSLHPESGQENDATSPHFS [A3V] | 3.43
35 | FVGENSSLHPESGQENDATSPHFS [A3G] | 2.98
36 | FVWENSSLHPESGQENDATSPHFS [A3W] | 2.82
37 | FVMENSSLHPESGQENDATSPHFS [A3M] | 3.11
38 | FVHENSSLHPESGQENDATSPHFS [A3H] | 3.03
39 | FVNENSSLHPESGQENDATSPHFS [A3N] | 3.21
40 | FVCENSSLHPESGQENDATSPHFS [A3C] | 2.73
41 | FVIENSSLHPESGQENDATSPHFS [A3I] | 2.86
42 | FVTENSSLHPESGQENDATSPHFS [A3T] | 3.12
43 | FVDENSSLHPESGQENDATSPHFS [A3D] | 2.95
44 | FVAVNSSLHPESGQENDATSPHFS [E4V] | 3.2
45 | FVAWNSSLHPESGQENDATSPHFS [E4W] | 3.23
46 | FVAYNSSLHPESGQENDATSPHFS [E4Y] | 2.39
47 | FVAANSSLHPESGQENDATSPHFS [E4A] | 2.85
48 | FVAGNSSLHPESGQENDATSPHFS [E4G] | 3.99
49 | FVAINSSLHPESGQENDATSPHFS [E4I] | 2.42
50 | FVANNSSLHPESGQENDATSPHFS [E4N] | 2.87
51 | FVAQNSSLHPESGQENDATSPHFS [E4Q] | 3.31

Row | Variant | protein stability index
52 | FVALNSSLHPESGQENDATSPHFS [E4L] | 2.9
53 | FVARNSSLHPESGQENDATSPHFS [E4R] | 2.17
54 | FVADNSSLHPESGQENDATSPHFS [E4D] | 2.61
55 | FVAFNSSLHPESGQENDATSPHFS [E4F] | 2.18
56 | FVAHNSSLHPESGQENDATSPHFS [E4H] | 2.5
57 | FVAMNSSLHPESGQENDATSPHFS [E4M] | 2.1
58 | FVATNSSLHPESGQENDATSPHFS [E4T] | 2.37
59 | FVACNSSLHPESGQENDATSPHFS [E4C] | 1.93
60 | FVAPNSSLHPESGQENDATSPHFS [E4P] | 3.51
61 | FVASNSSLHPESGQENDATSPHFS [E4S] | 2.44
62 | FVAKNSSLHPESGQENDATSPHFS [E4K] | 2.89
63 | FVAECSSLHPESGQENDATSPHFS [N5C] | 2.5
64 | FVAEMSSLHPESGQENDATSPHFS [N5M] | 2.45
65 | FVAELSSLHPESGQENDATSPHFS [N5L] | 2.95
66 | FVAEDSSLHPESGQENDATSPHFS [N5D] | 4.57
67 | FVAEGSSLHPESGQENDATSPHFS [N5G] | 3.21
68 | FVAEASSLHPESGQENDATSPHFS [N5A] | 3.1
69 | FVAEESSLHPESGQENDATSPHFS [N5E] | 3.7
70 | FVAEISSLHPESGQENDATSPHFS [N5I] | 2.16
71 | FVAEFSSLHPESGQENDATSPHFS [N5F] | 1.94
72 | FVAEQSSLHPESGQENDATSPHFS [N5Q] | 3.22
73 | FVAEKSSLHPESGQENDATSPHFS [N5K] | 2.69
74 | FVAEHSSLHPESGQENDATSPHFS [N5H] | 2.61

Row | Variant | protein stability index
75 | FVAEPSSLHPESGQENDATSPHFS [N5P] | 2.56
76 | FCAENSSLHPESGQENDATSPHFS [V2C] | 4.82
77 | FYAENSSLHPESGQENDATSPHFS [V2Y] | 4.84
78 | FPAENSSLHPESGQENDATSPHFS [V2P] | 5.46
79 | FMAENSSLHPESGQENDATSPHFS [V2M] | 4.87
80 | FHAENSSLHPESGQENDATSPHFS [V2H] | 4
81 | FQAENSSLHPESGQENDATSPHFS [V2Q] | 4.86
82 | FFAENSSLHPESGQENDATSPHFS [V2F] | 5.13
83 | FWAENSSLHPESGQENDATSPHFS [V2W] | 4.86
84 | FTAENSSLHPESGQENDATSPHFS [V2T] | 5.17
85 | FRAENSSLHPESGQENDATSPHFS [V2R] | 5.36
86 | FNAENSSLHPESGQENDATSPHFS [V2N] | 5.25
87 | FGAENSSLHPESGQENDATSPHFS [V2G] | 5.26
88 | FLAENSSLHPESGQENDATSPHFS [V2L] | 5
89 | FAAENSSLHPESGQENDATSPHFS [V2A] | 4.94
90 | FEAENSSLHPESGQENDATSPHFS [V2E] | 5.5
91 | FKAENSSLHPESGQENDATSPHFS [V2K] | 5.4
92 | FSAENSSLHPESGQENDATSPHFS [V2S] | 5.39
93 | FIAENSSLHPESGQENDATSPHFS [V2I] | 4.44
94 | FDAENSSLHPESGQENDATSPHFS [V2D] | 5.18
